# Experimental data as given in patent US20260234592.
# Entries after “also recorded” stand apart in the source; their conditions may differ.
# How the values were obtained:
# [1] = biological target: CBD-TEVrs-bglA (N-terminal His-tagged chitin binding domain, TEVrs ENLYFQG, 6-phospho-β-glucosidase A)
# [2] = biological target: MBP5-TEV-paramyosin ΔSal (maltose binding protein domain and a paramyosin fragment linked by a TEV protease recognition sequence)
Protein,CBD-TEVrs-bglA cleavage over time at 30° C. and 20° C. [1],"Slope of ln(1-(cleavage ratio)) against the concentration of TEV protease, 4° C., 18 hours [1]","substrate cleaved, 0° C., 18 hours [1]","substrate cleaved, 4° C., 18 hours [1]","protease concentration that reaches almost 100% cleavage, 4° C., 18 hours [1]",CBD-TEVrs-bglA cleavage over time at 30° C. [1],further results
"R49V variant TEV protease (N-terminal His tag; R49V, L56V, S135G, S219V) (protein) GHHHHHHHGESLFKGPRDYNPISSTICHLTNESDGHTTSLYGIGFGPFIITNKHLFVRNNGTLVVQSLHGVFKVKNTTTLQQHLIDGRDMIIIRMPKDFPPFPQKLKFREPQREERICLVTTNFQTKSMSSMVSDTSCTFPSGDGIFWKHWIQTKDGQCGSPLVSTRDGFIVGIHSASNFTNTNNYFTSVPKNFMELLTNQEAQQWVSGWRLNADSVLWGGHKVFMVKPEEPFQPVKEATQLMNE",showed slightly weaker activity than control TEV protease,y = -11.281x - 0.2037,–,–,–,–,Ratio kR49V/kcontrol = (kcat/KM)R49V/(kcat/KM)control [1]: 2
"L76P variant TEV protease (N-terminal His tag; L56V, L76P, S135G, S219V) (protein) GHHHHHHHGESLFKGPRDYNPISSTICHLTNESDGHTTSLYGIGFGPFIITNKHLFRRNNGTLVVQSLHGVFKVKNTTTLQQHPIDGRDMIIIRMPKDFPPFPQKLKFREPQREERICLVTTNFQTKSMSSMVSDTSCTFPSGDGIFWKHWIQTKDGQCGSPLVSTRDGFIVGIHSASNFTNTNNYFTSVPKNFMELLTNQEAQQWVSGWRLNADSVLWGGHKVFMVKPEEPFQPVKEATQLMNE","At both temperatures, the L76P variant showed higher activity than control TEV protease",y = -13.611x - 0.0596,the L76P variant cleaved 75% of the substrate,the L76P variant cleaved 87% of the substrate,–,–,Ratio kL76P/kcontrol = (kcat/KM)L76P/(kcat/KM)control [1]: 1.7
"control TEV protease (TEV protease triple variant L56V, S135G, S219V with N-terminal His tag) (protein) GHHHHHHHGESLFKGPRDYNPISSTICHLTNESDGHTTSLYGIGFGPFIITNKHLFRRNNGTLVVQSLHGVFKVKNTTTLQQHLIDGRDMIIIRMPKDFPPFPQKLKFREPQREERICLVTTNFQTKSMSSMVSDTSCTFPSGDGIFWKHWIQTKDGQCGSPLVSTRDGFIVGIHSASNFTNTNNYFTSVPKNFMELLTNQEAQQWVSGWRLNADSVLWGGHKVFMVKPEEPFQPVKEATQLMNE",–,–,the control TEV protease cleaved 64% of the substrate,Control TEV protease cleaved the substrate by 73%; also recorded: the control TEV protease cleaved 77% of the substrate,2 µM of the control TEV protease was needed to reach the same mark,–,–
"R49F_L76P variant TEV protease (N-terminal His tag; R49F, L56V, L76P, S135G, S219V) (protein) GHHHHHHHGESLFKGPRDYNPISSTICHLTNESDGHTTSLYGIGFGPFIITNKHLFFRNNGTLVVQSLHGVFKVKNTTTLQQHPIDGRDMIIIRMPKDFPPFPQKLKFREPQREERICLVTTNFQTKSMSSMVSDTSCTFPSGDGIFWKHWIQTKDGQCGSPLVSTRDGFIVGIHSASNFTNTNNYFTSVPKNFMELLTNQEAQQWVSGWRLNADSVLWGGHKVFMVKPEEPFQPVKEATQLMNE",–,y = -13.518x - 0.0413,the R49F_L76P variant cleaved 86% of the substrate,the R49F_L76P variant cleaved 97% of the substrate,the R49F_L76P variant reached almost 100% cleavage at 0.5 µM,all variants performed better that the control with the R49F_L76P variant (SEQ ID NO: 11) displaying the highest activity,"cleavage of the substrate, 4° C., 1 hour [2]: The variant protease achieved 85% cleavage in just 1 hour at 4 °C; cleavage of the substrate, 4° C., 3 hours [2]: The variant TEV protease cleaved 98% of the substrate in 3 hours; cleavage of the substrate, 4° C., 5 hours [2]: 99% in 5 hours; Ratio kR49F-L76P/kcontrol = (kcat/KM)R49F-L76P/(kcat/KM)control [1]: 2.6"
"R49V_L76P variant TEV protease (N-terminal His tag; R49V, L56V, L76P, S135G, S219V) (protein) GHHHHHHHGESLFKGPRDYNPISSTICHLTNESDGHTTSLYGIGFGPFIITNKHLFVRNNGTLVVQSLHGVFKVKNTTTLQQHPIDGRDMIIIRMPKDFPPFPQKLKFREPQREERICLVTTNFQTKSMSSMVSDTSCTFPSGDGIFWKHWIQTKDGQCGSPLVSTRDGFIVGIHSASNFTNTNNYFTSVPKNFMELLTNQEAQQWVSGWRLNADSVLWGGHKVFMVKPEEPFQPVKEATQLMNE",the R49V_L76P variant showed higher activity than L76P variant,y = -11.117x - 0.0916,–,R49V_L76P variant cleaved the substrate by 94%,the R49V_L76P variant reached almost 100% cleavage at 0.5 µM,all variants performed better that the control,Ratio kR49V-L76P/kcontrol = (kcat/KM)R49V-L76P/(kcat/KM)control [1]: 1.5
"R49A_L76P variant TEV protease (triple variant further comprising R49A and L76P), expressed in vivo (protein) GESLFKGPRDYNPISSTICHLTNESDGHTTSLYGIGFGPFIITNKHLFARNNGTLVVQSLHGVFKVKNTTTLQQHPIDGRDMIIIRMPKDFPPFPQKLKFREPQREERICLVTTNFQTKSMSSMVSDTSCTFPSGDGIFWKHWIQTKDGQCGSPLVSTRDGFIVGIHSASNFTNTNNYFTSVPKNFMELLTNQEAQQWVSGWRLNADSVLWGGHKVFMVKPEEPFQPVKEATQLMNE",–,–,–,–,–,all variants performed better that the control,–
"R49L_L76P variant TEV protease (triple variant further comprising R49L and L76P), expressed in vivo (protein) GESLFKGPRDYNPISSTICHLTNESDGHTTSLYGIGFGPFIITNKHLFLRNNGTLVVQSLHGVFKVKNTTTLQQHPIDGRDMIIIRMPKDFPPFPQKLKFREPQREERICLVTTNFQTKSMSSMVSDTSCTFPSGDGIFWKHWIQTKDGQCGSPLVSTRDGFIVGIHSASNFTNTNNYFTSVPKNFMELLTNQEAQQWVSGWRLNADSVLWGGHKVFMVKPEEPFQPVKEATQLMNE",–,–,–,–,–,all variants performed better that the control,–
"R49G_L76P variant TEV protease (triple variant further comprising R49G and L76P), expressed in vivo (protein) GESLFKGPRDYNPISSTICHLTNESDGHTTSLYGIGFGPFIITNKHLFGRNNGTLVVQSLHGVFKVKNTTTLQQHPIDGRDMIIIRMPKDFPPFPQKLKFREPQREERICLVTTNFQTKSMSSMVSDTSCTFPSGDGIFWKHWIQTKDGQCGSPLVSTRDGFIVGIHSASNFTNTNNYFTSVPKNFMELLTNQEAQQWVSGWRLNADSVLWGGHKVFMVKPEEPFQPVKEATQLMNE",–,–,–,–,–,all variants performed better that the control,–
"R49I_L76P variant TEV protease (triple variant further comprising R49I and L76P), expressed in vivo (protein) GESLFKGPRDYNPISSTICHLTNESDGHTTSLYGIGFGPFIITNKHLFIRNNGTLVVQSLHGVFKVKNTTTLQQHPIDGRDMIIIRMPKDFPPFPQKLKFREPQREERICLVTTNFQTKSMSSMVSDTSCTFPSGDGIFWKHWIQTKDGQCGSPLVSTRDGFIVGIHSASNFTNTNNYFTSVPKNFMELLTNQEAQQWVSGWRLNADSVLWGGHKVFMVKPEEPFQPVKEATQLMNE",–,–,–,–,–,all variants performed better that the control,–
